According to PMC8635433 (2021):

Assays:
Assay in all cases: SPR
[1] = target: T1, coxsackie and adenovirus receptor (CAR), immobilised for SPR (UniProt P78310 20-365)
T1 chain: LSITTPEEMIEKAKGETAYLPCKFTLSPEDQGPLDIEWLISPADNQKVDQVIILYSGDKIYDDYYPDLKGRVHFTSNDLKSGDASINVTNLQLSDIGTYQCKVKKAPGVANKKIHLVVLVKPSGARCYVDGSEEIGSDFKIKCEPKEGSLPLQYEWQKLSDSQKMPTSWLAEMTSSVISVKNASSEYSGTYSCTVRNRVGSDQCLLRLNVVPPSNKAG

[2] = target: T2, CD46, immobilised for SPR (UniProt P15529 35-392)
T2 chain: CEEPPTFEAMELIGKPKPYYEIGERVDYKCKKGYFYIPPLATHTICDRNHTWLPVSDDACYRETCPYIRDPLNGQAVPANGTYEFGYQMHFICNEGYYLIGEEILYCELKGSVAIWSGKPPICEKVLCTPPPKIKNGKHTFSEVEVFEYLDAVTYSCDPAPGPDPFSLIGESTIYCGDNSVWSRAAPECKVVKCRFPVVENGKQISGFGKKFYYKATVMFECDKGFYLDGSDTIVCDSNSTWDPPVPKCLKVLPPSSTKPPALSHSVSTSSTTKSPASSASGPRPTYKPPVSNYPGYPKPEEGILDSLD

[3] = target: T2, CD46, immobilised for SPR

B1: ChAdOx1 fiber knob protein (domain or fragment)
chain: GALTAGNKEDDKLTLWTTPDPSPNCQLLSDRDAKFTLCLTKCGSQILGTVAVAAVTVGSALNPINDTVKSAIVFLRFDSDGVLMSNSSMVGDYWNFREGQTTQSVAYTNAVGFMPNLGAYPKTQSKTPKNSIVSQVYLNGETTMPMTLTITFNGTDEKDTTPVSTYSMTFTWQWTGDYKDKNITFATNSFTFSYMAQE
- koff [1]: 0.00018 s⁻¹

B2: HAdV-C5 fiber knob protein (domain or fragment)
chain: TGAITVGNKNNDKLTLWTTPAPSPNCRLNAEKDAKLTLVLTKCGSQILATVSVLAVKGSLAPISGTVQSAHLIIRFDENGVLLNNSFLDPEYWNFRNGDLTEGTAYTNAVGFMPNLSAYPKSHGKTAKSNIVSQVYLNGDKTKPVTLTITLNGTQETGDTTPSAYSMSFSWDWSGHNYINEIFATSSYTFSYIAQE
- koff [1]: 0.000109 s⁻¹

B3: HAdV-B35 fiber knob protein (domain or fragment)
chain: FNNGDICIKDSINTLWTGINPPPNCQIVENTNTNDGKLTLVLVKNGGLVNGYVSLVGVSDTVNQMFTQKTANIQLRLYFDSSGNLLTEESDLKIPLKNKSSTATSETVASSKAFMPSTTAYPFNTTTRDSENYIHGICYYMTSYDRSLFPLNISIMLNSRMISSNVAYAIQFEWNLNASESPESNIATLTTSPFFFSYITEDDN
- Kd [2]: 4.38 nM
- koff [3]: 0.000994 s⁻¹
